Measurements reported in patent US11236354B2, “Glyphosate-n-acetyltransferase (GLYAT) sequences and methods of use” (PIONEER HI-BRED INTERNATIONAL, INC., priority 2013, dated 2022).

Key:
O=C(O)CNCP(=O)(O)O [1] = test: Substrate saturation kinetic analysis of purified GLYAT; assay type: biochemical; conditions: other: SEQ ID NO:26, pH 7.0, non-varied substrate saturating, 37.0 °C
Experimental: E. coli cultures in LB or 2×YT were grown overnight at 37° C. to saturation. The cells were used as a 2% inoculum into fresh media. When OD reached 0.6, IPTG was added to 0.2 mM and growth was continued for at least 6 hours. Cells were harvested by centrifugation and stored at −80° C. Cells were lysed with BPER (Pierce) containing 1 mM dithiothreitol, 0.2 mg/ml lysozyme, 2 mg/ml protease inhibitor cocktail (Sigma bacterial cell cocktail, P8465) and endonuclease. Lysate supernatants were passed through a column of NHS-activated Agarose (Thermo, #26197) derivatized with coenzyme A. Columns were washed with 25 mM Hepes, pH 7, containing progressively higher concentrations of KCl, then eluted with 25 mM Hepes, 100 mM KCl, 10% ethylene glycol and 1 mM acetyl CoA. Purity as evaluated by polyacrylamide gel electrophoresis was deemed consistently high enough to be assumed to be 100%. Protein concentration was determined with the Bradford assay using a large-scale lot of produced GLYAT protein as standard.
Kinetic parameters for various substrates were obtained using a range of seven substrate concentrations plus a blank containing none of the varied substrate. The non-varied substrate was present at a saturating concentration. Six-microliter aliquots of 50-fold concentrated stock solutions of the varied substrate were placed in a 96-well assay plate (Greiner BioOne UV-Star). Reactions were started with the addition of 294 ul of 25 mM Hepes, pH 7.0, 100 mM KCL, 10% ethylene glycol, the non-varied substrate and 10 to 200 nM enzyme. Absorbance was monitored for one minute with a Spectramax 384 Plus plate reader (Molecular Devices). If the amino acid present at position 30 (29 if alanine is absent at position 2) was cysteine, absorbance was monitored at 235 nm, which directly detects cleavage of the sulfoester bond of acetyl CoA. If the amino acid present at position 30 (29 if alanine is absent at position 2) was isoleucine, 0.5 mM 5,5′-dithiobis-(2-nitrobenzoic acid), which reacts with the coenzyme A thiol generated in the enzyme catalyzed reaction, was included in the reaction mix and absorbance was monitored at 412 nm. Initial rates were processed by the Softmax software to obtain kinetic parameters, using the double-reciprocal transformation.
The sequences with the new substitutions were derived through a combination of saturation mutagenesis of an already fit protein (SEQ ID NO:26) and an effective screening cascade as a means of identifying the improved genes (Examples 1-2). Regions in which novel changes are concentrated include helix H2a (positions 23 and 25-29) and the hairpin formed by strands B6 and B7 (positions 124-144). These two structures are components of the amino substrate binding site. Helix H3, the backbone to which the central beta sheet is anchored, is a region where 24% of the novel substitutions (17 out of 71) disclosed in Table 4 are concentrated into 11% of the positions (16 out of 146). None of those are near enough to the active site to influence substrate specificity directly. In three cases, multiple novel substitutions were discovered immediately or nearly adjacent to conserved amino acids shown previously to contribute to the catalytic mechanism (Siehl D L et. al., J Biol Chem, 282:11446, 2007). The catalytic amino acids for which this is the case are R21, R111, H138 and the nearby positions with multiple substitutions are 23, 112 and 137. The diverse amino acids at these positions may influence the orientation of the neighboring catalytic amino acids so as to selectively optimize catalysis with the preferred substrate, glyphosate.

N[C@@H](CC(=O)O)C(=O)O = test: cells, lysate or membranes named; conditions: 37.0 °C
O=C(O)CNCP(=O)(O)O [2] = test: cells, lysate or membranes named; conditions: 37.0 °C
[3] = other: SEQ ID NO:1, pH 7.0, non-varied substrate saturating
[4] = other: SEQ ID NO:2, pH 7.0, non-varied substrate saturating
[5] = other: SEQ ID NO:3, pH 7.0, non-varied substrate saturating
[6] = other: SEQ ID NO:4, pH 7.0, non-varied substrate saturating

Substance: GLYAT (glyphosate-N-acetyltransferase), parent of saturation mutagenesis (already fit protein), SEQ ID NO:26 (derived from SEQ ID NO:1 and 2) (Bacillus licheniformis DSM 13 = ATCC 14580; A28V/C29I/D131E/E14D/E65Q/E67K/E68K/E83D/G37R/I132T/I135A/I15L/I19V/I53V/I91V/K101R/K144R/K58Q/L105M/L26I/L97I/M75V/R47G/R92K/T89S/V114A/Y130F/Y45F)
- Km (O=C(O)CNCP(=O)(O)O [1]): 220 µM
- kcat (O=C(O)CNCP(=O)(O)O [1]): 9.33 s⁻¹
- kcat/Km (O=C(O)CNCP(=O)(O)O [1]): 41750 M⁻¹ s⁻¹

Substance: GLYAT (glyphosate-N-acetyltransferase), parent, SEQ ID NO:1 (Bacillus licheniformis DSM 13 = ATCC 14580; E119R/E14D/E65Q/E67K/E68K/G37R/G38S/I132T/I135V/I15L/I19V/I53V/I91V/K101R/K144R/K58Q/L105M/L106I/L145I/L26I/L36T/L97I/M75V/R47G/R92K/T33S/T89S/V114A/Y130F/Y31F/Y45F)
- Km (N[C@@H](CC(=O)O)C(=O)O; [3]): 32900 µM
- kcat (N[C@@H](CC(=O)O)C(=O)O; [3]): 7.3 s⁻¹
- kcat/Km (N[C@@H](CC(=O)O)C(=O)O; [3]): 229 M⁻¹ s⁻¹
- Km (O=C(O)CNCP(=O)(O)O [2]; [3]): 1360 µM
- kcat (O=C(O)CNCP(=O)(O)O [2]; [3]): 24.23 s⁻¹
- kcat/Km (O=C(O)CNCP(=O)(O)O [2]; [3]): 18000 M⁻¹ s⁻¹

Substance: GLYAT (glyphosate-N-acetyltransferase), parent, SEQ ID NO:2 (Bacillus licheniformis DSM 13 = ATCC 14580; A28V/D131E/E119K/E63D/E65Q/E67Q/E68K/E83D/E96Q/G37R/I132T/I135V/I15L/I2L/K101R/K144R/K58Q/L105M/L97I/R18K/T89S/V114A/Y130F/Y45F)
- Km (N[C@@H](CC(=O)O)C(=O)O; [4]): 47600 µM
- kcat (N[C@@H](CC(=O)O)C(=O)O; [4]): 0.887 s⁻¹
- kcat/Km (N[C@@H](CC(=O)O)C(=O)O; [4]): 18.7 M⁻¹ s⁻¹
- Km (O=C(O)CNCP(=O)(O)O [2]; [4]): 1380 µM
- kcat (O=C(O)CNCP(=O)(O)O [2]; [4]): 4.52 s⁻¹
- kcat/Km (O=C(O)CNCP(=O)(O)O [2]; [4]): 3270 M⁻¹ s⁻¹

Substance: GLYAT variant SEQ ID NO:3 (derived from SEQ ID NO:1 and 2) (Bacillus licheniformis DSM 13 = ATCC 14580; A28V/D131E/E119K/E14D/E65Q/E67K/E68K/E83D/G37R/I132T/I135V/I15L/I19V/I2L/I53V/I91V/K101R/K144R/K58Q/L105M/L106I/L26I/L97I/M75V/R47G/R92K/T89S/V114A/Y130F/Y45F)
- Km (N[C@@H](CC(=O)O)C(=O)O; [5]): 35100 µM
- kcat (N[C@@H](CC(=O)O)C(=O)O; [5]): 2.72 s⁻¹
- kcat/Km (N[C@@H](CC(=O)O)C(=O)O; [5]): 77.8 M⁻¹ s⁻¹
- Km (O=C(O)CNCP(=O)(O)O [2]; [5]): 600 µM
- kcat (O=C(O)CNCP(=O)(O)O [2]; [5]): 11.6 s⁻¹
- kcat/Km (O=C(O)CNCP(=O)(O)O [2]; [5]): 19320 M⁻¹ s⁻¹

Substance: GLYAT variant SEQ ID NO:4 (derived from SEQ ID NO:1 and 2) (Bacillus licheniformis DSM 13 = ATCC 14580; D131E/E14D/E65Q/E67K/E68K/G37R/G38S/I132T/I135A/I15L/I19V/I53V/I91V/K101R/K144R/K58Q/L105M/L26I/L36T/L97I/M75V/R47G/R92K/T33S/T89S/V114A/Y130F/Y31F/Y45F)
- Km (N[C@@H](CC(=O)O)C(=O)O; [6]): 78300 µM
- kcat (N[C@@H](CC(=O)O)C(=O)O; [6]): 2.27 s⁻¹
- kcat/Km (N[C@@H](CC(=O)O)C(=O)O; [6]): 29 M⁻¹ s⁻¹
- Km (O=C(O)CNCP(=O)(O)O [2]; [6]): 1960 µM
- kcat (O=C(O)CNCP(=O)(O)O [2]; [6]): 26.88 s⁻¹
- kcat/Km (O=C(O)CNCP(=O)(O)O [2]; [6]): 13800 M⁻¹ s⁻¹
